Data as given in paper PMC7150778 (2020).
Like-named read-outs stand apart in the source and are kept apart here.

Assays:
[1] = target: NS1 ED (Influenza A virus) (UniProt P69278); conditions: cited from earlier work
[2] = target: p85β iSH2 (UniProt O00459); conditions: cited from earlier work
[3] = target: T1, p85β iSH2 (UniProt O00459)
T1 chain: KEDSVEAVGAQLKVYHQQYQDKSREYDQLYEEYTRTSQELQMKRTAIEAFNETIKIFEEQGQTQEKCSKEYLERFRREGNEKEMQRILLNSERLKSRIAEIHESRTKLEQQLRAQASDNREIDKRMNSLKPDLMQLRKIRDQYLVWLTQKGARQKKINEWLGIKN

Molecule: NS1 ED (from UniProt P69278)
- Kd [1]: 89 µM

Molecule: 1918 NS1 ED-CTT (from UniProt Q0PDM0)
- Kd [2]: 300 nM

B1: 1918 NS1 ED-ΔCTT (protein)
chain: TMASVPASRYLTDMTLEELSRDWSMLIPKQKVAGPLCIRMDQAIMDKNIILKANFSVIFDRLETLILLRAFTEEGAIVGEISPLPSLPGHTAEDVKNAVGVLIGGLEWNDNTVRVSETLQRFAWRSSNENGRPPLTPKQKREMAGTIRSEV
- Kd [3]: 370 nM

B2: 1918 NS1 ED-CTT (protein)
chain: TMASVPASRYLTDMTLEELSRDWSMLIPKQKVAGPLCIRMDQAIMDKNIILKANFSVIFDRLETLILLRAFTEEGAIVGEISPLPSLPGHTAEDVKNAVGVLIGGLEWNDNTVRVSETLQRFAWRSSNENGRPPLTPKQKREMAGTIRSEV
- Kd [3]: 700 nM
